Data reported in patent US20240325562A1 (LINXIS B V, published 2024).
Numbering of substitutions follows the chain as printed.

T1: recombinant rPDGFRB ectodomain (rat, UniProt Q05030 32-531)
T1 construct: extracellular domain; also called rPDGFRB-ECD; rat PDGFRB ECD
T1 sequence (looked up): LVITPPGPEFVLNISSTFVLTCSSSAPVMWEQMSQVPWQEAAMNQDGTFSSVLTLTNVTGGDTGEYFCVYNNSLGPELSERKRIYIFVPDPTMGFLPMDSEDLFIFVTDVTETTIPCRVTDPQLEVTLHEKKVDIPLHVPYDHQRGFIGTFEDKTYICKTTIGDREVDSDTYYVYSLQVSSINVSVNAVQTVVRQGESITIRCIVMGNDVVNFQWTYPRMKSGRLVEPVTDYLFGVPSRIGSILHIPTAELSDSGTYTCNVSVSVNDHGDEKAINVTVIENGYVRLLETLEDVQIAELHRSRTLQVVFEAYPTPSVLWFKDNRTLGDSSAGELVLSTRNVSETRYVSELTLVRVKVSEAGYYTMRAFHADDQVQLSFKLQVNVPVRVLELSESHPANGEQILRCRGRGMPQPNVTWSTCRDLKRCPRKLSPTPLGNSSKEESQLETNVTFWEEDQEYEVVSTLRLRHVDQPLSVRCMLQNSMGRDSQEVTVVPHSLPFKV

B1: SP27P (VHH)
VHH: EVQLVESGGGLVQIGDSLRLSCAASGGTFNRYGMGWFRQAPGKEREFVAAIRWDGVDTNYADFVKGRFTISRYNAKNTAYLQMNSLKPEDTAVYYCAADRRGLYTKHAHRYDYWGQGTQVTVSS
notes: From libraries 3 and 4 (raised against rPDGFRB)
B2: SP30P (VHH)
VHH: EVQLVESGGGLVQAGGSLRLSCAASRGTFGTDIMGWFRQAPGKEREFVAAISWRGANTYYGYSVKGRFTISRDNAKNTMYLQMADLKPEDTADYYCGVHLNGTPYYYASGYRYWGQGTQVTVSS
notes: as for B1
B3: SP31P (VHH)
VHH: B2 VHH with D32Y
notes: as for B1
B4: SP28P (VHH)
VHH: EVQLVESGGGLVQAGGSLRLSCAASGSIVSFNGINWYRQAPGKQREWVGGITQGGNTMYADSVRGRFTISRDNTKNTMYLQMNSLKPEDTAVYYCRRPPVASWGQGTQVTVSS
notes: as for B1
B5: SP36P (VHH)
VHH: EVQLVESGGGLVQAGGSLRLSCTPSITTAGTTIMAWFRQAPGNEREFVAAIWGSKTAYGDSMKGRLTISRDNVRDNGQKTVFLQMNNLQLQDTATYYCAASSGGYVHSSTSYEIWGRGTQVTVSS
notes: as for B1
B6: SP13P (VHH)
VHH: EVQLVESGGGLVQPGGSLRLSCAASESIFSINYMAWYRQAPGKQRELVAFSIDGSSTNYVDSVRGRFTASRDNAENTLYLQMNSLKPEDTAVYYCYAQGNTWAAGVWGQGTQVTVSS
notes: From libraries 1 and 2 (raised against hPDGFRB)
B7: SP14P (VHH)
VHH: EVQLVESGGGLVQAGDSLRLSCVVSGLTFSRYGMGWFRQATGKEREFVGGISVGSSGTMYPNSVKGRFTISRDNAKSTVYLQMNSLKPEDTAVYFCAAIDQGSFVQQRDYRYWGQGTQVTVSS
notes: as for B6
B8: SP08P (VHH)
VHH: EVQLVESGGGLVQAGGSLRLSCAASGRTFNGYAMAWFRQAPGKERDFVASITWSYGYTYYADSAQGRFTISRDSAKNTVYLEMNSLKPEDTAVYYCAADPKASRFRILRQYAHWGQGTQVTVSS
notes: as for B6
B9: SP12P (VHH)
VHH: EVQLVESGGGLVQAGGSLRLSCVISGRTSPTYPMGWFRQSPGNEREFVASINWSGGWRNYADSVKGRFTISRDDAKNTVYLQMNSLKPEDTAVYYCARGQYSSGTPVYAHEYAYWGQGTQVTVSS
notes: as for B6
B10: SP20P (VHH)
VHH: B9 VHH with G66D
notes: as for B6
B11: SP01P (VHH)
VHH: EVQLVESGGGLAQAGGSLRLSCVASGNIDSANGMAWYRQAPGKQRELVAHITSGTSYYVASVEGRFTISRANAKDTWYLQMNSLKPEDTGVYYCFPIGLSAHWSQGTQVTVSS
notes: as for B6
B12: SP10P (VHH)
VHH: EVQLVESGGGLVQAGGSLRLSCAASGRTFNGYAMGWFRQAPGKERDFVAAITWSYGYTHYAESVKGRFSISRDSANNMVYLEMNSLKPEDTAVYYCAADPKASRFRTLRRYDYWGQGTQVTVSS
notes: as for B6
B13: SP02P (VHH)
VHH: EVQLVESGGGLVQAGGSLRLSCAASESISSIEQMGWFRQAPGKQRALVAINTYGGRTVYTNSVEGRFTMSRDSAKNMVYLQMTSLEPEDTAVYYCYAQTTAWRGGVWGQGTQVTVSS
notes: as for B6
B14: SP05P (VHH)
VHH: EVQLVESGGGLVQAGGSLRLSCAASGRTSFSGYAMAWFRQAPGKERDFVASITWSYGYTYYTDSAQGRFTISRDSAKNTVYLEMNSLKPEDTAVYYCAADPKASRFRILREYAYWGQGTQVTVSS
notes: as for B6
B15: 13A2 (VHH)
VHH: EVQLVESGGGLVQAGGSLRLSCAASGIIFSANTVGWYRQVPGKERDVVASITSGDSTYYGDSVRDRFTISRDNAKNTVYLQMNSLKPDDTAIYYCRARTTDGSYWGQGTQVTVSS
notes: On phage in the phage ELISA; tail applies to the purified protein
B16: 13B12 (VHH)
VHH: B15 VHH with S30G, G54V, D65G, D88E
notes: as for B15
B17: 13A8 (VHH)
VHH: EVQLVESGGGLVPAGGSLRLSCAASGRTFSNYAMGWFRQAPGKERKFVATISWSGGVTYYADSVKGRFTISRDNAKNTVYLLMNSLKPEDTAVYYCAAKRDSSSYDHRRYDYWGQGTQVTVSS
notes: On phage in the phage ELISA; purified from E. coli in the other assays
B18: 13G12 (VHH)
VHH: EVQLVESGGGLVQAGGSLRLSCAASGRAFSISSMSWFRQAPGKERVVVASIAWSGDSTYYADSVQGRFTISKDNAKNTLSLQMNSLKPEDTAVYYCSAYTQVSVNNRYWGQGTQVTVSS
notes: the first entry is used; On phage in the phage ELISA
B19: 13E5 (VHH)
VHH: EVQLVESGGGLVQAGGSLRLSCAASGLTFSRYTMSWYRQAPGKEREVVAAISSGDSTYHEDSVKGRFIISRDNAKNTVYLQMNSLKTEDTAVYYCRANGPGTYWGQGTQVTVSS
notes: as for B15
B20: 13B7 (VHH)
VHH: EVQLVESGGGLVQAGGSLRLSCAASRSISPMGWYRQAPGKQRELVAIMPSSGTPIYADSVQGRFTISRDNAKNTVYLQMNSLKPEDTAVYYCNVGGGYWGQGTQVTVSS
notes: as for B15
B21: 13D11 (VHH)
VHH: EVQLVESGGGLVQAGGSLRLSCAASGSIFSINYMAWYRQAPGKEREVVASMSWRRDSTYLADSVQGRFTISRNNAKNTMYLQMNSLKPEDTALYYCKANDYWGQGTQVTVSS
notes: as for B15
B22: 13A3 (VHH)
VHH: B21 VHH with S30R, I31L, W53R, R55S, S63A, R72M, K76G
notes: as for B15
B23: 13F4 (VHH)
VHH: B21 VHH with A23V, A40T, W53R, R55S, S63A, K76G
notes: as for B15
B24: 13E8-13F11-A647 (bispecific antibody)
chain: EVQLVESGGGLVQAGGSLRLSCAASRSISPMGWYRQAPGKQRELVAIMPSSGPPIYADSVQGRFTISRDNAKNTVYLQMNSLKPEDTAVYYCNVGGGYWGQGTQVTVSSGGGGSGGGGSGGGGSEVQLVESGGRLVQPGDSLRLSCAASGRTFSDNAMGWFRQAPGKERRFVAGISWAGGSTYYSDSVKGRFTISRDNAKNTVYLQMNSLKPEDTAVYYCAAGLRAWVQRMPKDYNYWGQGTQVTVSS
modifications: Alexa Fluor 647 coupled by maleimide to the C-terminal free cysteine, which is not in the letters
notes: Biparatopic tandem VHH, reciprocal order; not shown: C-terminal tail: free Cys, possible thrombin site and His6 tag
B25: 13F11-13E8-A647 (bispecific antibody)
chain: EVQLVESGGRLVQPGDSLRLSCAASGRTFSDNAMGWFRQAPGKERRFVAGISWAGGSTYYSDSVKGRFTISRDNAKNTVYLQMNSLKPEDTAVYYCAAGLRAWVQRMPKDYNYWGQGTQVTVSSGGGGSGGGGSGGGGSEVQLVESGGGLVQAGGSLRLSCAASRSISPMGWYRQAPGKQRELVAIMPSSGPPIYADSVQGRFTISRDNAKNTVYLQMNSLKPEDTAVYYCNVGGGYWGQGTQVTVSS
modifications: Alexa Fluor 647 coupled by maleimide to the C-terminal free cysteine, which is not in the letters
notes: Biparatopic tandem VHH; not shown: C-terminal tail: free Cys, possible thrombin site and His6 tag
B26: 13F11-13F11-A647 (VHH)
chain: EVQLVESGGRLVQPGDSLRLSCAASGRTFSDNAMGWFRQAPGKERRFVAGISWAGGSTYYSDSVKGRFTISRDNAKNTVYLQMNSLKPEDTAVYYCAAGLRAWVQRMPKDYNYWGQGTQVTVSSGGGGSGGGGSGGGGSEVQLVESGGRLVQPGDSLRLSCAASGRTFSDNAMGWFRQAPGKERRFVAGISWAGGSTYYSDSVKGRFTISRDNAKNTVYLQMNSLKPEDTAVYYCAAGLRAWVQRMPKDYNYWGQGTQVTVSS
modifications: Alexa Fluor 647 coupled by maleimide to the C-terminal free cysteine, which is not in the letters
notes: Bivalent tandem VHH; not shown: C-terminal tail: free Cys, possible thrombin site and His6 tag

Each binder was assayed against T1, recombinant rPDGFRB ectodomain (assay: phage ELISA and binding assay on rPDGFRB-ECD; values only in FIG. 6).

Row | Binder | binding result
1 | B1 | binds
2 | B2 | binds
3 | B3 | binds
4 | B4 | binds
5 | B5 | binds

These binders were tested against T2, recombinant hPDGFRB ectodomain (human, UniProt P09619 33-532) (assay: phage ELISA and binding assay on hPDGFRB-ECD; values only in FIG. 5).
T2 construct: extracellular domain; also called hPDGFRB-ECD; human PDGFRB ECD
T2 sequence (P09619 33-532): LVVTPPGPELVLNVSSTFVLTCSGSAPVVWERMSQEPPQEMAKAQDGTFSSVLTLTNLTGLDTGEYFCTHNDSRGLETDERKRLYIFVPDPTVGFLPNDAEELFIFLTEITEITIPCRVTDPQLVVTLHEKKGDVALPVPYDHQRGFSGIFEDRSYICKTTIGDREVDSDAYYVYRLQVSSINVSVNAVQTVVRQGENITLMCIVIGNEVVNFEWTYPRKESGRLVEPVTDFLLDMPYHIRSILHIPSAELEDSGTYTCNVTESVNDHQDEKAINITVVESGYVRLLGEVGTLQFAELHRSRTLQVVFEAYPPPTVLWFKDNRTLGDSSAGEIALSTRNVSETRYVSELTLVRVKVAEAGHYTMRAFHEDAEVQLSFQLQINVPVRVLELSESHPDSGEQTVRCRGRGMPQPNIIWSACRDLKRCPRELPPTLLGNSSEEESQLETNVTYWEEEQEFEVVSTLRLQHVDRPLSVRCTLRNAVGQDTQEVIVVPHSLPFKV

Row | Binder | binding result
6 | B6 | binds
7 | B7 | binds
8 | B8 | binds
9 | B9 | binds
10 | B10 | binds
11 | B11 | binds
12 | B12 | binds
13 | B13 | binds
14 | B14 | binds

The binders below were run against T3, recombinant human extracellular domain of IGF2R (human, UniProt P11717 41-2304) (assay: phage ELISA on hIGF2R-ECD).
T3 construct: extracellular domain; Recombinant, immobilized on plates; also called hIGF2R-ECD; human IGF2R ectodomain (ECD)
Experimental: After the second selection round, 94 phage clones were randomly picked and assessed for binding to hIGF2R-ECD in a phage ELISA. Clones showing affinity were analyzed by restriction enzyme analysis using Hinfl and then categorized according to their restriction pattern. From each category, multiple clones were selected, and the amino acid sequences of these binders were identified (Table 2).

Row | Binder | binding result
15 | B15 | binds
16 | B16 | binds
17 | B17 | binds
18 | B18 | binds
19 | B19 | binds
20 | B20 | binds
21 | B21 | binds
22 | B22 | binds
23 | B23 | binds

The binders below were run against T3, recombinant human extracellular domain … (assay: direct binding assay of the Alexa Fluor 647 conjugate on hIGF2R-ECD, one-site specific binding fit).
Experimental: These conjugates were then subjected to direct binding assays on immobilized hIGF2R-ECD, meaning that plates were read out immediately after washing, without additional detection steps. […] For detailed analysis, binding parameters KD and Bₘₐₓ were calculated in Graphpad (version 8.3), using one-site specific binding analysis (FIG. 8D).
Based on their high affinity and binding to non-overlapping receptor epitopes, VHHs 13F11 and 13E8 were selected for the design of biparatopic and bivalent VHH constructs. Two VHHs were fused with a flexible linker, consisting of three Gly-Gly-Gly-Gly-Ser repeats (FIG. 8A). The sequences were codon optimized for expression in E. coli and obtained as synthesized DNA fragments from GeneArt. The DNA fragments encoding VHHs were cloned into a vector pET28-based vector introducing a C-terminal free cysteine for site-directed conjugation and His6 tag for IMAC purification (FIG. 8A). The VHH constructs were produced and purified as described in example 4. […] In a similar binding assay, IR dye 800 (IRD800) conjugates were prepared (as outlined in example 10.2) of the monomeric VHHs 13F11 and 13E8, the biparatopic VHH construct 13F11-13E8, the reciprocal biparatopic construct 13E8-13F11, the bivalent VHH construct 13F11-13F11, and the non-binding (control-) VHH R2. Conjugated constructs were then subjected to binding assay as described above.

Row | Binder | Kd
24 | B24 | 2.5 nM
25 | B25 | 2.5 nM
26 | B26 | 3.1 nM
